Measurements: patent publication US20080058263A1 (published 2008)
Positions count from the first letter of the chain named.

T1: VEGFR-3-Fc (UniProt P35916 25-328)
T1 construct: domain: first three Ig domains; conditioned supernatant of 293T cells; also called VEGFR-3-Fc fusion protein; not shown: Fc fragment of the pIg vector
T1 sequence (looked up): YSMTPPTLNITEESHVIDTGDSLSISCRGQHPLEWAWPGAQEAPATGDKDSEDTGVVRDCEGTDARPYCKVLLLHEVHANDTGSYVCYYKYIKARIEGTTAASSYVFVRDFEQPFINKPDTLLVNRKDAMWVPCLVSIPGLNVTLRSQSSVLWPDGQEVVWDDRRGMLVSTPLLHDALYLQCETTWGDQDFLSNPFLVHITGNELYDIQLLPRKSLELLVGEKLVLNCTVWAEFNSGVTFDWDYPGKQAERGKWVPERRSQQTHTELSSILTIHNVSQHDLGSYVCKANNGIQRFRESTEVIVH

B1: 13-14 (ligand)
chain: GQNHHEVVKFMDVYQRSYCHPIETLVDIFQEYPDEIEYIFKPPCVSVYRCGGCCNDEGLECMNTSTSYLSKTLFEITVPLSQGPKPVTISFANHTSCRCMSKLD
B2: 31-6 (ligand)
chain: GQNHHEVVKSIDNEWRKTQCMPIETLVDIFQEYPDEIEYIFKPSCVPLMRCGGCCNDEGLECMNTSTSYLSKTLFEIKPHQGQHIGEMSFANHTSCRCMSKLD
B3: 72-7 (ligand)
chain: GQNHHEVVKSIDNEWRKTQCMPREVCIDVGKEFGVATNTFFKPPCVSVYRCGGCCNSEGLQCVPTEESNITMQIMRIKPHQGQHIGEMSFANHTSCRCMSKL
B4: 24-3 (ligand)
chain: AHYNTEILKSIDNEWRKTQCMPREVCIDVGKEFGVATNTFFKPSCVPLMRCGGCCNSEGLQCVPTEESNITMQIMRIKPHQGQHIGEMSFLQHNKCECRPKKD
B5: 54-5 (ligand)
chain: AHYNTEILKSIDNEWRKTQCMPIETLVDIFQEFGVATNTFFKPSCVPLMRCGGCCNDEGLECVPTEESNITMQIMRIKPHQGQHIGEMSFANHTSCRCMSKLD
B6: 54-7 (ligand)
chain: B5 chain with D57S, E61Q
B7: 72-5 (ligand)
chain: GQNHHEVVKSIDNEWRKTQCMPREVCIDVGKEFGVATNTFFKPPCVSVYRCGGCCNDEGLECVPTEESNITMQIMRIKPHQGQHIGEMSFANHTSCRCMSKLD
B8: 74-7 (ligand)
chain: B7 chain with P44S, S47P, V48L, Y49M, D57S, E61Q
B9: 74-5 (ligand)
chain: B7 chain with P44S, S47P, V48L, Y49M
B10: 24-7 (ligand)
chain: B4 chain with L91A, Q92N, N94T, K95S, E97R, R99M, P100S, K102L
B11: 52-5 (ligand)
chain: B5 chain with S44P, P47S, L48V, M49Y
B12: 13-4 (ligand)
chain: GQNHHEVVKFMDVYQRSYCHPIETLVDIFQEYPDEIEYIFKPPCVSVYRCGGCCNSEGLQCMNTSTSYLSKTLFEIKPHQGQHIGEMSFLQHNKCECRPKKD
B13: 14-13 (ligand)
chain: GQNHHEVVKFMDVYQRSYCHPIETLVDIFQEFGVATNTFFKPSCVPLMRCGGCCNDEGLECVPTEESNITMQIMRITVPLSQGPKPVTISFANHTSCRCMSKLD

Target: T1, VEGFR-3-Fc
Assay: receptor-Fc IP
Method in brief: (§1)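 fusion protein at 400 ng/ml in an IP mix (PBS, 1.5% BSA, 0.06% Tween 20, 3 μg/ml heparin) was combined with sample supernatant at a 1:2 ratio. Bound ligand captured by immunoprecipitation with pentahistidine antibody.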

Row | Binder | binding result
1 | B1 | no binding
2 | B2 | no binding
3 | B3 | no binding
4 | B4 | no binding
5 | B5 | no binding
6 | B6 | no binding
7 | B7 | no binding
8 | B8 | no binding
9 | B9 | no binding
10 | B10 | no binding
11 | B11 | no binding
12 | B12 | no binding
13 | B13 | no binding

Target: T2, VEGFR-1-Fc (UniProt P17948 27-338)
T2 construct: domain: first three Ig domains; expressed in Drosophila S2 cells, purified on Protein A sepharose; also called VEGFR-1-Fc fusion protein; not shown: Fc fragment from the Signal-pIgPlus vector
T2 sequence (P17948 27-338): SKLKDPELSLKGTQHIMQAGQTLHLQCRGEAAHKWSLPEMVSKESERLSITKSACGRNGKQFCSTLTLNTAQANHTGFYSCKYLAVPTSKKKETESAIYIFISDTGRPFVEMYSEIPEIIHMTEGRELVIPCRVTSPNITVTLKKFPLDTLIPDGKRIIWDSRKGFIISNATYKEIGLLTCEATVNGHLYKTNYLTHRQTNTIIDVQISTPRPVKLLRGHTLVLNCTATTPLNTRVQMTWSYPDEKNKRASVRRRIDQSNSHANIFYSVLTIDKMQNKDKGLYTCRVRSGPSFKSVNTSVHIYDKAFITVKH
Assay: receptor-Fc IP
Method in brief: as §1

Row | Binder | binding result
14 | B1 | no binding
15 | B2 | no binding
16 | B3 | no binding
17 | B4 | no binding
18 | B5 | no binding
19 | B6 | no binding
20 | B7 | no binding
21 | B8 | no binding
22 | B9 | no binding
23 | B10 | no binding
24 | B11 | no binding
25 | B12 | no binding
26 | B13 | no binding

Target: T3, VEGFR-2-Fc (UniProt P35968 20-322)
T3 construct: domain: first 3 Ig domains; conditioned supernatant of 293T cells; also called VEGFR-2-Fc fusion protein; not shown: Fc fragment of the pIg vector
T3 sequence (P35968 20-322): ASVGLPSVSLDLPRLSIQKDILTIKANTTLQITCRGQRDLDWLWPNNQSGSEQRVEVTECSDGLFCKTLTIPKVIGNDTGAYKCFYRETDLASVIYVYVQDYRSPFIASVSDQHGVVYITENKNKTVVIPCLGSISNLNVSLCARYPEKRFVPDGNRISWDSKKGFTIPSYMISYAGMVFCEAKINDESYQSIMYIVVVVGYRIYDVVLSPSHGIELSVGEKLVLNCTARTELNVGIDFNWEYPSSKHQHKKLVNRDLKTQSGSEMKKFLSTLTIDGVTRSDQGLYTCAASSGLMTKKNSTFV
Assay: receptor-Fc IP
Method in brief: as §1

Row | Binder | binding result
27 | B1 | no binding
28 | B2 | no binding
29 | B3 | no binding
30 | B4 | no binding
31 | B5 | no binding
32 | B6 | no binding
33 | B7 | no binding
34 | B8 | no binding
35 | B9 | no binding
36 | B10 | no binding
37 | B11 | no binding
38 | B12 | no binding
39 | B13 | no binding
